Data from patent publication US20220282268A1 (UNIVERSITY COURT OF THE UNIVERSITY OF EDINBURGH, published 2022).

Tests used:
[1] = target: T1, A. thaliana CP12-2 (AtCP12) (Arabidopsis thaliana, UniProt Q9LZP9 54-131, limits assumed); test: yeast two-hybrid
T1 construct: also called AT3G62410; pGADT7_CP12
T1 sequence (looked up): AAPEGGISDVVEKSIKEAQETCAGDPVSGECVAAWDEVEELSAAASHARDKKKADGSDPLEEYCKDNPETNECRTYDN
Protocol: (§1) Competent yeast cells (Y2H Gold, Clontech) were prepared from a 50 ml culture grown in YPDA medium supplemented with kanamycin (50 μg ml⁻¹). Cells were washed with ddH2O and a lithium acetate/TE solution (100 mM LiAc, 10 mM Tris-HCl [pH 7.5], 1 mM EDTA) before re-suspending in lithium acetate/TE solution. Cells were then co-transformed with binding and activation domain vectors by mixing 50 μl of competent cells with 1 μg of each plasmid vector and a PEG solution (100 mM LiAc, 10 mM Tris-HCl [pH 7.5], 1 mM EDTA, 40% [v/v] PEG 4000). Cells were incubated at 30° C. for 30 min, then subjected to a heat shock of 42° C. for 20 min. The cells were centrifuged, re-suspended in 500 μl YPDA and incubated at 30° C. for ca 90 min, then centrifuged and washed in TE (10 mM Tris-HCl [pH 7.5], 1 mM EDTA). […] The following day 1 ml of culture was harvested, cell density (OD₆₀₀) measured, centrifuged and then diluted in TE to give a final OD₆₀₀ of 0.5 or 0.1.
(§2) Yeast cultures were then plated onto SD-L-W (yeast synthetic minimal media lacking leucine (L) and tryptophan (W)) and SD-L-W-H (yeast synthetic minimal media lacking L, W, and histidine(H)) (Anachem). […] These plates were then incubated for 3 days before assessing for presence or absence of growth, to perform a semi-quantitative yeast two-hybrid assay as in van Nues and Beggs (van Nues and Beggs, Genetics (2000) 157: 1451-1467). […]

[2] = target: the molecule itself; test: yeast two-hybrid, EPYC1 in both the binding domain and the activation domain vector
Protocol: as §1, §2

[3] = target: A. thaliana Rubisco small subunit 1A (1AAt), mature (Arabidopsis thaliana, UniProt P10795 56-180); test: yeast two-hybrid, growth on SD-L-W-H with 3-AT
Protocol: as §1, §2

[4] = target: T2, 1AAtMOD (β-sheets): A. thaliana SSU 1A with β-sheets replaced with C. reinhardtii β-sheets (Arabidopsis thaliana with parts of …); test: yeast two-hybrid (FIG. 3C)
T2 construct: also called pGADT7_1AAtMOD(β-sheets)
T2 chain: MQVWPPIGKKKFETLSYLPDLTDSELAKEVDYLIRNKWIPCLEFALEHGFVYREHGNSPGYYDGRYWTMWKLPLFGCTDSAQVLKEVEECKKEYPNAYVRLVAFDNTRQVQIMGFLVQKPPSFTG
Protocol: (§3) The following day 1 ml of culture was harvested, cell density (OD₆₀₀) measured, centrifuged and then diluted in TE to give a final OD₆₀₀ of 0.5 or 0.1.
(§4) Yeast cultures were then plated onto SD-L-W (yeast synthetic minimal media lacking leucine (L) and tryptophan (W)) and SD-L-W-H (yeast synthetic minimal media lacking L, W, and histidine(H)) (Anachem). Yeast expressing both binding and activation domain constructs was grown on SD-L-W to confirm presence of both plasmids. To assess interaction strength, yeast was plated onto SD-L-W-H with differing concentrations of the HIS3 inhibitor 3-aminotriazole (3-AT). These plates were then incubated for 3 days before assessing for presence or absence of growth, to perform a semi-quantitative yeast two-hybrid assay as in van Nues and Beggs (van Nues and Beggs, Genetics (2000) 157: 1451-1467). The same yeast transformation was used for each interaction study. Different colonies on the same yeast transformation plate were considered independent biological replicates (as for E. coli). Two biological replicates (top and bottom row for each interaction) were spotted from different liquid culture concentrations (0.5 and 0.1 OD). Each interaction experiment was performed at least twice.
(§5) Interactions were only observed between EPYC1 and chimeric 1AAt with the two α-helices from the C. reinhardtii SSU (FIG. 3C). The S1Cr 1AAt with the S1Cr α-helices alone produced a minimal interaction (i.e., on 0 mM 3-AT), which was strengthened by the incorporation of the β-sheets and the βA-βB loop from S1Cr.

[5] = target: T3, 1AAtMOD (α-helices and β-sheets): A. thaliana SSU 1A with α-helices and β-sheets replaced with those of C. … (Arabidopsis thaliana with parts of …); test: yeast two-hybrid (FIG. 3C)
T3 construct: also called pGADT7_1AAtMOD(α-helices + β-sheets)
T3 chain: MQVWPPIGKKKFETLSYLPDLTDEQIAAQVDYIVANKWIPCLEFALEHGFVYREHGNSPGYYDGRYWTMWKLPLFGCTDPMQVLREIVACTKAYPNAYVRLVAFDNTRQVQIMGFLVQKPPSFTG
Protocol: as §3, §4, §5

[6] = target: T4, 1AAtMOD (β-sheets and loop): A. thaliana SSU 1A with β-sheets and βA-βB loop replaced with those of C. … (Arabidopsis thaliana with parts of …); test: yeast two-hybrid (FIG. 3C)
T4 construct: also called 1AAtMod (β-sheet and loop); pGADT7_1AAtMOD(β-sheets + loop)
T4 chain: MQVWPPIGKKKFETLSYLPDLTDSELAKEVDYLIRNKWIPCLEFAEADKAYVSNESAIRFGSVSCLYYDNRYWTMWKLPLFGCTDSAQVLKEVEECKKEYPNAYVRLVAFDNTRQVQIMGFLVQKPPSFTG
Protocol: as §3, §4, §5

[7] = target: T5, 1AAtMOD (α-helices, β-sheets and loop): A. thaliana SSU 1A with α-helices, β-sheets and βA-βB loop replaced … (Arabidopsis thaliana with parts of …); test: yeast two-hybrid (FIG. 3C)
T5 construct: also called 1AAtMod (α-helices, β-sheet and loop); pGADT7_1AAtMOD(α-helices + β-sheets + loop)
T5 chain: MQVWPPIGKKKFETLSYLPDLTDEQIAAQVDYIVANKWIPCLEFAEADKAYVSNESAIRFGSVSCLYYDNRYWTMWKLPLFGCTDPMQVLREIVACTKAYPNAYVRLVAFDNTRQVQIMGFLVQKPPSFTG
Protocol: as §3, §4, §5

[8] = target: T6, 1AAtMOD (loop): A. thaliana SSU 1A with βA-βB loop replaced with C. reinhardtii βA-βB loop (Arabidopsis thaliana with parts of …); test: yeast two-hybrid (FIG. 3C)
T6 construct: also called pGADT7_1AAtMOD(loop)
T6 chain: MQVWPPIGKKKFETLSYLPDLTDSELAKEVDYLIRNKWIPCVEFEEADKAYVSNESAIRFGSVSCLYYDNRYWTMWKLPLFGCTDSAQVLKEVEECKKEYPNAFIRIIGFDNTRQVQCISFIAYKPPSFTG
Protocol: as §3, §4, §5

B1: Essential Pyrenoid Component 1 (EPYC1), full-length, C. reinhardtii (other)
chain: MATISSMRVGAASRVVVSGRVKTVKVAARGSWRESSTATVQASRASSATNRVSPTRSVLPANWRQELESLRNGNGSSSAASSAPAPARSSSASWRDAAPASSAPARSSSASKKAVTPSRSALPSNWKQELESLRSSSPAPASSAPAPARSSSASWRDAAPASSAPARSSSSKKAVTPSRSALPSNWKQELESLRSSSPAPASSAPAPARSSSASWRDAAPASSAPARSSSASKKAVTPSRSALPSNWKQELESLRSNSPAPASSAPAPARSSSASWRDAPASSSSSSADKAGTNPWTGKSKPEIKRTALPADWRKGL
notes: also called Cre10.g436550.t1.2; pGBKT7_EPYC1
binding result [1]: no binding | binding result [2]: no binding | binding result [3]: no binding | binding result [4]: no binding | binding result [5]: binds | binding result [6]: no binding | binding result [7]: binds | binding result [8]: no binding
